In experiment [1] the target is T1, murine FAP recombinant protein (murine, UniProt P97321 26-761).
T1 construct: The protein was biotinylated for bio-layer interferometry; also called extracellular domain of murine FAP with N-terminal His6-tag
T1 sequence: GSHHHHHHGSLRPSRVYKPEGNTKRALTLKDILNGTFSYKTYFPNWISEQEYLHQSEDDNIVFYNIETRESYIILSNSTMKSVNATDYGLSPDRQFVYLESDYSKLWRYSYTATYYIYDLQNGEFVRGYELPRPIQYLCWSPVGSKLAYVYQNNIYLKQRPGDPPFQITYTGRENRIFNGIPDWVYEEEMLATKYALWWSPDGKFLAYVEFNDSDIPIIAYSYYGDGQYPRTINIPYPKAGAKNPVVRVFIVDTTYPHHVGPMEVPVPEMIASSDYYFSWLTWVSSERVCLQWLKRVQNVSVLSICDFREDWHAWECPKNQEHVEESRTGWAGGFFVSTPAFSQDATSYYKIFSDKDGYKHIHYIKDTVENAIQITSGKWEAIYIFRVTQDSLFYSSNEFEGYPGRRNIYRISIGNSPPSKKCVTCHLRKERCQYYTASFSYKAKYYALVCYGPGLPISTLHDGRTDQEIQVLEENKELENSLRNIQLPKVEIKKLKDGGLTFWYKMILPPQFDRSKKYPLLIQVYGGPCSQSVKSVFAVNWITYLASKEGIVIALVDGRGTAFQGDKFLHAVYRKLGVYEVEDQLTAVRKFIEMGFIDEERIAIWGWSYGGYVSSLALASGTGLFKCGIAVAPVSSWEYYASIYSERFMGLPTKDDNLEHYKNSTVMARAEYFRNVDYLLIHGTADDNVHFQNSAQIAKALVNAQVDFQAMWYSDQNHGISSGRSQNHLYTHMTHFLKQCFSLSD
Description: bio-layer interferometry (Octet RED96), biotinylated murine FAP on streptavidin sensor, kinetic titration, 25 °C. On the procedure:
(§1) The kinetic parameters of antigen binding by purified VHHs were determined via bio-layer interferometry with an Octet RED96 instrument (ForteBio). The assay was performed at 25° C. with shaking at 1000 rpm. Streptavidin coated SA sensors were equilibrated in assay buffer (HBS supplemented with 0.5% BSA, 0.1% Tween), before loading for 5 min with the biotinylated FAP recombinant protein at a concentration of 5 μg/ml. His₆-tagged VHHs were analyzed in a threefold serial dilution from 30 nM to 0.4 nM in assay buffer (except for VHH B3 binding murine FAP recombinant protein, for which a fivefold serial dilution from 1000 nM to 1.6 nM was employed). First the baseline was measured for 180 s in assay buffer, followed by 5 subsequent association phases of 180 s with the VHH preparations in increasing order of concentration, with 75 s intermediate dissociation phases in assay buffer in between, and a final dissociation phase in assay buffer of 30 min. In every assay a reference sensor loaded with FAP recombinant protein was included that was incubated in assay buffer during the association phases.
(§2) Binding curves were exported and analyzed using the BIAevaluation analysis software (GE Healthcare). First the y-axes of the different curves were aligned to the median of the last 5 s of the baseline measurement. Subsequently, the sensorgram of the reference sensor was subtracted from all other sensorgrams. The resulting binding curve was fitted using a general fit with the ‘kinetic titration with drift’ binding model (1:1 (antigen:analyte) model; Karlsson, R. et al (2006), Analyzing a kinetic titration series using affinity biosensors. Analytical Biochemistry 349: 136-147), with Rmax fitted global, RI local and drift set to 0.
(§3) Table 7 gives an overview of the kinetic parameters of antigen binding for His₆-tagged VHHs B1, B2, B3 and B4 (SEQ ID NO: 21-24), as determined by bio-layer interferometry with biotinylated human or murine FAP recombinant protein that was loaded on the sensor.
Background: In BLI a coated tip is dipped into the sample, and binding shifts an interference pattern.

The target in experiment [2] is T2, human FAP expressed on cells (human, UniProt Q12884 1-760).
T2 construct: also called human FAP cell surface protein; human FAP receptor
T2 sequence: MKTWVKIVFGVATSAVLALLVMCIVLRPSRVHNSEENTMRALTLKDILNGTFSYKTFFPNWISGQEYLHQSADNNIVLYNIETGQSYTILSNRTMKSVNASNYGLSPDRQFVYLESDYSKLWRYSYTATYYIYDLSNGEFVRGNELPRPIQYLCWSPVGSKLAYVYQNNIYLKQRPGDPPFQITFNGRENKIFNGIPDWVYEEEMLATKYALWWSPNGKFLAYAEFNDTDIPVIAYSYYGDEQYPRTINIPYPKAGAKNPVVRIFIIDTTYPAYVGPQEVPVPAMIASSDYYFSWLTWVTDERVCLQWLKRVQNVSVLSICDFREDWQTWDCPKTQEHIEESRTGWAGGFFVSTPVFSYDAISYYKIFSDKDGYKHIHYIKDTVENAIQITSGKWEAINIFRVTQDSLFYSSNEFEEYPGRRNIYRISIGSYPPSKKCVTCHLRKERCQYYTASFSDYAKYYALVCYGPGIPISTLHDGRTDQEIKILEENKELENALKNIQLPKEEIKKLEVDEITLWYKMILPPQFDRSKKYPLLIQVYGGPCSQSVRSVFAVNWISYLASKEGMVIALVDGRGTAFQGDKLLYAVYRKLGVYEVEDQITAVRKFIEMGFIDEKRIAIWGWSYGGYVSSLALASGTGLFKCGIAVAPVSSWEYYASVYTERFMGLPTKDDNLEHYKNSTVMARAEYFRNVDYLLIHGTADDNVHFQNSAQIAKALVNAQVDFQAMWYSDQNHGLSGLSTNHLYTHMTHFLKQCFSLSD
Briefly: saturation binding of 99mTc-labelled VHH on human FAP-expressing HEK-293 cells (mean ± SD, n = 3). On the procedure:
(§4) Next, we describe the in vitro and in vivo human and murine FAP binding potential of different VHHs after radiolabelling with the diagnostic radioisotope ^99mTc. […] His₆-tagged human/murine FAP-targeting VHHs were radiolabelled with the diagnostic radioisotope ^99mTc, according to the radiochemical procedure described in Example 3.
(§5) Next, the different cell lines were incubated with serial dilutions with concentrations ranging from 0 to 300 nM of the different ^99mTc-labelled His₆-tagged VHHs. A 100-fold excess of the corresponding unlabeled VHH was added in parallel to saturate the human or murine FAP proteins on the cancer cell surface, to assess non-specific binding. The resulting EC50 values for each of the VHHs are depicted in Table 8. […] We confirmed that ^99mTc-labeled VHH B4 only binds murine FAP cell surface protein, while VHH B3 only binds human FAP cell surface molecules in vitro.

Experiment [3] addresses T3, murine FAP expressed on cells (murine, UniProt P97321 1-761).
T3 construct: also called murine FAP cell surface protein
T3 sequence: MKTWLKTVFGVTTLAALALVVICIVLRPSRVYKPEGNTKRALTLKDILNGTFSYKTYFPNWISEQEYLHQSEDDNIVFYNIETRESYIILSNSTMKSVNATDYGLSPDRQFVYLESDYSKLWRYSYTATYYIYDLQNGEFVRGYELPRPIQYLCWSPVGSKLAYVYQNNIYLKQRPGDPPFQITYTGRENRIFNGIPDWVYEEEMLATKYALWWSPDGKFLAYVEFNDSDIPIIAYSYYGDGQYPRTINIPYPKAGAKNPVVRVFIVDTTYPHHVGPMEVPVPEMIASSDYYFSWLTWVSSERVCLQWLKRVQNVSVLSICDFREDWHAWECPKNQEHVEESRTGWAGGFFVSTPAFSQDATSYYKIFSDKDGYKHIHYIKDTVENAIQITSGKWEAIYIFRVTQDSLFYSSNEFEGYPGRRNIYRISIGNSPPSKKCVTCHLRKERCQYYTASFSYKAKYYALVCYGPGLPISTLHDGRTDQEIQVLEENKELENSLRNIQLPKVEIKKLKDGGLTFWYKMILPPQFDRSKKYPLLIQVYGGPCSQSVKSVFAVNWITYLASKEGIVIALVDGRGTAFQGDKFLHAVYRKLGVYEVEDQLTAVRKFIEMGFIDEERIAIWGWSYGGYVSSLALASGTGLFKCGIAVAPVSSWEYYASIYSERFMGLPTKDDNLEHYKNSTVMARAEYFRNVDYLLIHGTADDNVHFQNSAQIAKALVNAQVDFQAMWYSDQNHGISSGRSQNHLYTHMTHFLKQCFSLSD
Description: saturation binding of 99mTc-labelled VHH on murine FAP-expressing HEK-293 cells (mean ± SD, n = 3). On the procedure: as §4, §5

In experiment [4] the target is T2, human FAP expressed on cells. Briefly: saturation binding of 99mTc-labelled VHH on human FAP-expressing GM05389 cells (mean ± SD, n = 3). The procedure: as §4, §5
Experiment [5] has as its target T4, human FAP recombinant protein (human, UniProt Q12884 26-760).
T4 construct: The protein was biotinylated with sulfo-NHS-SS-biotin for bio-layer interferometry; also called extracellular domain of human FAP with N-terminal His6-tag
T4 sequence: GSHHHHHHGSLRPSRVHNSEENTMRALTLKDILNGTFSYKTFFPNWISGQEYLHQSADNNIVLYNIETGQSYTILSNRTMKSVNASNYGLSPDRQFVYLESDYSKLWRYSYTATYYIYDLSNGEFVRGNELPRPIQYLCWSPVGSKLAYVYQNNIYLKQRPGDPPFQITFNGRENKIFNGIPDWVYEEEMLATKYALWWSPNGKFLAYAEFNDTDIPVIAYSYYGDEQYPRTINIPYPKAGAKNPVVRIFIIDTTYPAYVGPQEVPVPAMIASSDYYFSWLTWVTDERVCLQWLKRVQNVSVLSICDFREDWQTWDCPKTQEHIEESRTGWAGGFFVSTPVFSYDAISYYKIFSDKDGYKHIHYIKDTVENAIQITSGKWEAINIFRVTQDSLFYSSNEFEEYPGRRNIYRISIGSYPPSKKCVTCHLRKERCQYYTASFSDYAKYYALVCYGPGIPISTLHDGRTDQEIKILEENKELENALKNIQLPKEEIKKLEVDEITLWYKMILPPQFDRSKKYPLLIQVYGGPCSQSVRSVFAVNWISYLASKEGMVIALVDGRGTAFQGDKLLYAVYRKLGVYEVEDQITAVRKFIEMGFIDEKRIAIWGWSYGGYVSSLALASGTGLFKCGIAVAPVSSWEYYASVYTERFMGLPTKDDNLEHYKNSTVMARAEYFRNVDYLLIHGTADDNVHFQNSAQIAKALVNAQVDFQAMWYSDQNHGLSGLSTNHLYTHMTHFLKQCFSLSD
Briefly: bio-layer interferometry (Octet RED96), biotinylated human FAP on streptavidin sensor, kinetic titration, 25 °C. The procedure:
as §1, §2, §3

B1: His6-tagged VHH B4 (VHH)
VHH: DVQLVESGGGLVQVGGSLRLSCVASGFTFSSYYMSWVRQAPGKGLEWVASIYADGDMTYYADSVRGRFTISRDNAKNTLYLQMNSLKSEDTAVYYCAKDPLPPYHVNQGTQVTVSS
notes: Purified, unlabelled; used in bio-layer interferometry; also called B4 with His6-tag
What is called Kd is a measure of binding affinity in units of concentration. As a reminder, the koff is a measure of how fast the partners let go of each other. What is called kon is the second-order rate constant of association. Turning to B1, in experiment [1], the dissociation constant (Kd) was 0.512 nM, the off-rate (koff) is 0.00056 s⁻¹ and the kon came out at 1.1e+06 M⁻¹ s⁻¹.

B2: 99mTc-labeled His6-tagged VHH B1 (VHH)
VHH: DVQLVESGGGLVQPGGSLRLSCVASGRLSSSNSMAWYRQVPGKRRELVAGITGGGETNYADFVGGRFTISRDNAKNGLYLQLNGLKPEDTAAYYCNFWPPLINYWGQGTQVTVSS
modifications: [99mTc(H2O)3(CO)3] complexed at the His6-tag
notes: also called 99mTc-B1
What is called EC50 is the midpoint of the concentration-response curve. A high value points to a less potent agent. Take B2: the concentration for a half-maximal effect (EC50) in experiment [2] amounted to 0.6 nM; in experiment [3], 5.8 nM; in experiment [4], 0.5 nM.

B3: His6-tagged VHH B2 (VHH)
VHH: DVQLVESGGGLVQAGGSLRLSCAVSGSISSANSMGWYRQAPGKQRDVVAGLTTGGRSHYADSVKGRFTISRDNAKNTVYLQMNSLKAEDTAVYYCNLWPPVQGYWGQGTQVTVSS
notes: Purified, unlabelled; used in bio-layer interferometry; also called B2 with His6-tag
B3: in experiment [5], the Kd is 0.0744 nM, the off-rate constant (koff) turned out to be 3.1e-05 s⁻¹ and the on-rate (kon) is 420000 M⁻¹ s⁻¹. In experiment [1], the equilibrium dissociation constant (Kd) came out at 24.3 nM, the off-rate (koff) came out at 0.0082 s⁻¹ and the association rate constant (kon) is 340000 M⁻¹ s⁻¹.

B4: 99mTc-labeled His6-tagged VHH B2 (VHH)
VHH: DVQLVESGGGLVQAGGSLRLSCAVSGSISSANSMGWYRQAPGKQRDVVAGLTTGGRSHYADSVKGRFTISRDNAKNTVYLQMNSLKAEDTAVYYCNLWPPVQGYWGQGTQVTVSS
modifications: [99mTc(H2O)3(CO)3] complexed at the His6-tag
notes: also called 99mTc-B2
Turning to B4, the EC50 in experiment [2] turned out to be 13 nM; in experiment [3] it was 139 nM; in experiment [4] it was 3.2 nM.

Values taken from patent US20230381350A1 (PRECIRIX N V, published 2023).
